For assay [1], the target named is T1, CD40-Ig (Alexis Biochemicals) (human, UniProt P25942 21-193).
T1 construct: extracellular domain; Bought; also called CD40 receptor
Briefly: ELISA on coated receptor-Ig fusion proteins, against the EC50 on the OX40R fusion protein. Here is the method:
(§1) Maxisorb 96-well plates (Nunc, Roskilde, Denmark) were coated with 100 μl of human TNFα receptor family member fusion proteins at 0.25 μg/ml diluted in BupH™ Carbonate buffer, pH 9.4 (Pierce, Rockford, Ill.) and incubated overnight at 4° C. The selectivity receptor fusion proteins tested included CD40-Ig (Alexis Biochemicals, San Diego, Calif.), CD137-Ig (R&D Systems, Minneapolis, Minn.) and CD271-Ig (Alexis Biochemicals, San Diego, Calif.). Also included as the positive control with each assay was the OX40-Ig fusion protein (in-house construct, Bioexpress, 97/2117). Plates were then washed three times with wash buffer containing 0.05% Tween 20 (Sigma, St Louis, Mo.) diluted in PBS and blocked with 300 μl of 0.5% BSA (Sigma, St Louis, Mo.) in PBS (Sigma, St Louis, Mo.) for 1 hour at RT°. Next, the plates were washed and 100 μl/well of anti-human OX40 reactive antibodies were added to the plates at various concentrations and incubated for 1 hour at RT°. Plates were thoroughly washed three times and OX40R antibody binding was detected with a horse radish peroxidase labeled anti-human kappa chain antibody (Bethyl Laboratories, Montgomery, Tex.) at 25 ng/ml for 1 hour at RD°. Plates were then washed three times which was followed by the addition of 100 μl/well of 1-Step Turbo-TMB substrate (Pierce, Rockford, Ill.) for 30 minutes at RT. The reaction was stopped by adding an equal volume of 2M H₂ SO₄. Absorbance was read at 450 nm on a Molecular Devices Spectra Max 340 (Molecular Devices, Sunnyvale, Calif.).

For assay [2], the target named is T2, CD137-Ig (R&D Systems) (human, UniProt Q07011 24-186).
T2 construct: extracellular domain; Bought; also called 4-1BB receptor (CD137)
T2 sequence (Q07011 whole entry, the tested form may be a part): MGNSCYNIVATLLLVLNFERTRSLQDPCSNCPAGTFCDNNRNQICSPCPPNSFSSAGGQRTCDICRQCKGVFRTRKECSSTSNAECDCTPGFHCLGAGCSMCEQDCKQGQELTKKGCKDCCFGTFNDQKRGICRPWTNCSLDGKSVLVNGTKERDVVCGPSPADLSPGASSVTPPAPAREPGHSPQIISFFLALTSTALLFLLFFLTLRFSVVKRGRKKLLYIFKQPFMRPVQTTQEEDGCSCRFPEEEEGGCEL
The description is as above. On the procedure: as §1

Assay [3] deals with T3, CD271-Ig (Alexis Biochemicals) (human, UniProt P08138 29-250).
T3 construct: extracellular domain; Bought; also called nerve growth factor receptor (CD271)
T3 sequence (P08138 29-250): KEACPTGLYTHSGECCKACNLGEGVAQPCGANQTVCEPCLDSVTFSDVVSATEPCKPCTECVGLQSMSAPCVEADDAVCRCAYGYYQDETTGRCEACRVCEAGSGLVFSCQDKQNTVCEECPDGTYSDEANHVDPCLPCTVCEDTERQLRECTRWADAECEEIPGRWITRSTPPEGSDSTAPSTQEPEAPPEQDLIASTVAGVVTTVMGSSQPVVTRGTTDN
Described as above. Here is the method:
as §1

Assay [4] addresses cynomolgus OX40R on activated cynomolgus monkey T cells / PBMCs (cynomolgus monkey). The assay can be described thus: cell-based or functional assay.
Assay [5] concerns the target T4, human OX40R-Ig fusion protein (extracellular domain, amino acids 1-220, of human OX40R fused to the constant … (human, UniProt P43489 29-220)).
T4 construct: range 1-220; Range 1-220 as printed; also called OX40-Ig; OX40-human IgG1 fusion protein; not shown: constant region of human IgG1
T4 sequence (looked up): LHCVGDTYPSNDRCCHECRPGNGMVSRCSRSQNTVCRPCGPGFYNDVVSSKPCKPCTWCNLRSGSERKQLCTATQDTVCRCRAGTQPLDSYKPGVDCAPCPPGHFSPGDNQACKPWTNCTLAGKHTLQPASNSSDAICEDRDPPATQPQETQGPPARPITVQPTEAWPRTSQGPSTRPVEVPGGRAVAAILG
Briefly: ELISA on coated OX40-Ig fusion protein. (In general: An ELISA detects its analyte on a solid surface through an enzyme-linked reagent.)

Assay [6] addresses T5, human OX40R on activated primary human T cells (human, UniProt P43489 29-277).
T5 construct: whole, on cells; also called CD3/CD28 stimulated T cells; human PBMC's stimulated with anti-CD3 and anti-CD28
T5 sequence (looked up): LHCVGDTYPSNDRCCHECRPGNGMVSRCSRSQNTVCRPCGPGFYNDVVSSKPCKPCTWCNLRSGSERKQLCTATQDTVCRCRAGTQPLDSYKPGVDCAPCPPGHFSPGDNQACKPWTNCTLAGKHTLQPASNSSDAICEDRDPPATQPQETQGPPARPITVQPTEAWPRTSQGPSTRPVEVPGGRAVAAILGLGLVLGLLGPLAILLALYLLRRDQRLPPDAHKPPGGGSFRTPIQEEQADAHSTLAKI
The assay can be described thus: FACS saturation binding on CD3/CD28 stimulated human T cells (N = 4). Here is the method:
OX40R-expressing cell lines (see below) or activated primary peripheral blood mononuclear cells (see below) were used to assess binding on both the human and cynomolgus OX40 receptors. Cells were harvested and washed (5×10⁵/tube) using wash buffer at RT°. The wash buffer consisted of PBS, 2% heat-inactivated fetal bovine serum (Hyclone, Logan, Utah) and 0.02% sodium azide (Sigma, St. Louis, Mo.). Next, 100 μl of various concentrations of antibody was added to the cells (starting at 30 ug/ml and using a 3-fold titration) diluted in wash buffer containing 0.005 mg/ml of cytocholasin B (Sigma, St. Louis, Mo.). The cells were gently rocked at RT° for 3 hours. Next, the cells were washed twice and resuspended in 0.5 ml/tube with cold wash buffer and 10,000 events were collected and analyzed using a Becton Dickinson FACSCalibur and CellQuest software (San Jose, Calif.).
Human whole blood was collected into heparinized syringes (Baxter; Deerfield, Ill.) and then immediately transferred to Sigma Accuspin tubes (Sigma, St. Louis, Mo.) for the isolation of peripheral blood mononuclear cells (PBMC) as described by the manufacturer. The PBMC were washed twice with DPBS and T lymphocytes were isolated using a T cell purification column as described by the manufacturer (R & D Systems, Minneapolis, Minn.). […]

Where “and” joins values, the source holds several entries; their conditions need not be identical. Identical values can stand only once.

As a reminder, the EC50 is the concentration at which the effect is half-maximal.

T1 sequence (P25942 21-193): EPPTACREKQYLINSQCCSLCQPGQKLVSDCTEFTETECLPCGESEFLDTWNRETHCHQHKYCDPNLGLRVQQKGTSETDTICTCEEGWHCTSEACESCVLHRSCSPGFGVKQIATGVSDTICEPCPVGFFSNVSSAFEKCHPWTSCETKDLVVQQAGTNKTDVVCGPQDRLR

B1: human monoclonal antibody 11D4 (antibody, V domains shown)
VH: EVQLVESGGGLVQPGGSLRLSCAASGFTFSSYSMNWVRQAPGKGLEWVSYISSSSSTIDYADSVKGRFTISRDNAKNSLYLQMNSLRDEDTAVYYCARESGWYLFDYWGQGTLVTVSS
VL: DIQMTQSPSSLSASVGDRVTITCRASQGISSWLAWYQQKPEKAPKSLIYAASSLQSGVPSRFSGSGSGTDFTLTISSLQPEDFATYYCQQYNSYPPTFGGGTKVEIKR
notes: IgG2 heavy chain, kappa light chain; allotypes G2(n-) and Km3; Alexa Fluor 647 conjugate was used in the species cross-reactivity FACS
Turning to B1, the “fold selectivity for the OX40R over this receptor” value in assay [1], in assay [2] and in assay [3] was more than 100 fold throughout. Besides, in assay [4], the “EC50 of anti-CD3 induced IL-2 production by monkey cells (mean of 1:3 dilution curves, N=3)” value was 0.022 µg/mL.

B2: human monoclonal antibody 18D8 (antibody, human IgG2, kappa, V domains shown)
VH: EVQLVESGGGLVQPGRSLRLSCAASGFTFDDYAMHWVRQAPGKGLEWVSGISWNSGSIGYADSVKGRFTISRDNAKNSLYLQMNSLRAEDTALYYCAKDQSTADYYFYYGMDVWGQGTTVTVSS
VL: EIVVTQSPATLSLSPGERATLSCRASQSVSSYLAWYQQKPGQAPRLLIYDASNRATGIPARFSGSGSGTDFTLTISSLEPEDFAVYYCQQRSNWPTFGQGTKVEIKR
Turning to B2, the concentration for a half-maximal effect (EC50) was 0.034 µg/mL and 0.23 nM in assay [5]; 1.06 µg/mL and 7.3 nM in assay [6].
